Assay results: the DeepSol protein solubility set

Assay: soluble on expression in E. coli; label from the status in PepcDB or PDB records

Row | Sequence | soluble on expression in E. coli
1 | MVRKMNKLAKRLASTSKSRQPEPESDSDGSEFDFDNAIEEKPMEAMDIEEVESDGDDDERELQAAFAAGLLKDGLNIQVAKKRPIINKSAEMKEKLAEITKDLPWVETLEVVTPHSEMDKKVENDDFQRELNFYKQAEKAVQIAYPRLLNLGIKVLRPTDYYAEMAKSDTHMQKVRKRLLGIQEMKERQEAFRRIREEKKFAVKVQKEVLAAKNTEKKNLAEAVKKHKKGMKQQLEDMLNNVKRHGLDQDDDAPTGAFGDRLGGRGGAGRGGAGRGGSMRNAGELKRKLKSDKFGYGGKKKGMKRNNKESFNDLFGAPRGGFGGRGRGGGRGGRGGRGRR | not soluble
2 | MVRKVNIIKGNEGQGKRIKFVQLIFVDINGMPKGMEVPITRLEEAIEEGIAFDGSSVPGFQGIEDSDLVFKADPSTYVEVPWDNVARVYGYIYKDGKPYEADPRGVLRRTLERLEKLGIKVYIGPEPEFYLFKKNGSWELEIPDVGGYFDILTLDKAKDIKREIAEYMPYFGLTPEVLHHEVGKAQHEIDFRHDEALKTADNIVSFKYIVKAVAEMHGLYATFMPKPIYGMPGNGMHLHISLWKDGENIFKGEEGLSETALYFIGGLLKHAKALAAVTNPTVNSYKRLVPGYEAPVYISWGYKNRSALIRVPAFWGNGARIEYRCPDPSANSYLAFAAILMAGLDGIKHKIEPFAYVEENVYEMDEKRREEIGIDMLPENLGEALDELERDKVVKEALGGAYRNFVGYKRKEWEEYLDYLEAKNLPKDTKNVTEWELERYFFI | soluble
3 | MVSEPKVPKAPRPPKQPNVQDFQFFPPRLFELLEKEILYYRKTIGYKVPRNPDLPNSAQVQKEEQLKIDEAEPLNDEELEEKEKLLTQGFTNWNKRDFNQFIKANEKWGRDDIENIAREVEGKTPEEVIEYSAVFWERCNELQDIEKTMAQIERGEARIQRRISILEHHHHHH | soluble
4 | MVSVEDYYTSEEKICDGIFVGNYGERKGSRYLFQIWDKVNEKIDAKLCIIGKGWSEIPKNSVYYGFVTEREKIDLLAKSKVFVFPSLYEGFALAVTEALSAYLPVVTWDLKWSERYPVAIRVTYPDISSFAEEVVKLLKDEKLRKSIGEKSREL | soluble
5 | MVSVIKPEMKMRYYMDGSVNGHEFTIEGEGTGRPYEGHQEMTLRVTMAKGGPMPFAFDLVSHVFCYGHRPFTKYPEEIPDYFKQAFPEGLSWERSLEFEDGGSASVSAHISLRGNTFYHKSKFTGVNFPADGPIMQNQSVDWEPSTEKITASDGVLKGDVTMYLKLEGGGNHKCQFKTTYKAAKKILKMPGSHYISHRLVRKTEGNITELVEDAVAHSLEHHHHHH | soluble
6 | MVTDHGYKCRITNIVPLSEHEKLFQLRIVDPRERELFTFRPGQFLMLEVPGYGEAPISISSATSNREFIELCIRKAGHVTSALFEAKQGAFVAVRGPFGTSFPMEAMQDHDVLLIAGGLGIAPLRAPLFWINDHRDHYRNVSFLYGAKEPSQMLFTYQFEEWKTVSHIDLHTIVEKPDDQWTGRTGMITLLFDEITIDPKNTWAIVCGPPVMFKFVCTHLDKLGIPMNRMFVSLERHMNCGMGKCCRCMVGSTFTCLDGPVFDYWSVMNLKEAI | not soluble
7 | MVTKEQVVEALEGIVDPFLHKTLKETSAIKEVTVKPEKEHVSVKIAIVKTGTAEQMQLQSGIVKLVKELGAATVGLRFAEFTEEELAQFAPEQEEEQSESLLSPNSKTTFLAVASGKGGVGKSTVSVNLAVALARLGKKVGIIDADIYGFSVPDMMGIEKRPIVRGDKIIPVERLGVKVISMGFFVEDNAPVIWRGPMLGKMLNHFFTEVEWGDLDYLVLDLPPGTGDVALDVHSMLPSCKEIIVTTPHPTAAFVAARAGAMALRTEHSILGVVENMAYFESKVTGEKEYVFGKGGGDKLATELQTNVLGRIPLQQPDWNKEDFAPSVYEDTHTTGIIYSKIAETVIDKTAVTQK | not soluble
8 | MVVISVIAIVLLLVYLDDKLGQFIFRNGRKTVVYPERRSDISLYINGRHLFSDYFAELGRARDHIHVLFYIIKNDETSAPFFQILKEKAAAGVKVRVLTDWVGSFGLPKALIRSLEESGVEFAYARKPRFPFFIYRLNRRNHRKITVIDGRVGYIGGFNIGREYNGKDANFGEWRDYHLKVNGEGVHDLQEQFLHDWEEATGRTVPDKHRYFPPLPAGAIRHQLVATNGAALEEQFIEVIRQAKKEIMIGSPYFIPSRPLFNELMQALRRGVRVTVLVPLKADHLFVKEAAYPYFYRLLKAGARIYRFYQGFYHAKTLVIDEEWCDVGTANFDRRSLFLNGEINCYVFDRGFTRLVKRAIERDLLRRRAADGRLLAKTFAS | not soluble
9 | MVVLNPNNWHWVDKNTLPWSKDYLNGKLTSLSTVSSDGKSKIELTQVSSITGDSNVSQRKGKPICYFDLQLSMNVKVTNLDTNKDDEDDDGILADGKLEIPEFMHDESDIPILSQGFDAFDGLVRSEFVPKVVETLLKYQDDLIKEHSKDIQV | soluble
10 | MVVLVTRSLLPALFFASRAPFAAATTSARFQRGLATMAAEAFTKHEVIPDVLASNPPSKVVSVKFNSGVEANLGNVLTPTQVKDTPEVKWDAEPGALYTLIKTDPDAPSRKEPTYREWHHWLVVNIPGNDIAKGDTLSEYIGAGPPPKTGLHRYVYLIYKQSGRIEDAEHGRLTNTSGDKRGGWKAADFVAKHKLGAPVFGNLFQAEYDDYVPILNKQLGA | not soluble
11 | MVVSDLKLRDMNEADRHAVGFVGFAAWRAGDAFDASYLDSYVVERVRGEFESFAKSPTGDVVVAEIDGVVVGWGACDAKPHHISDLWVDPNWQGKGIGKALIVHFLDRMRAEGLPLATIDTHARNRAAIGLYERCGFEIVWRGMEWSDIMKVELEKVKLEQKLSP | soluble
12 | MVVTCPKCGAKNRLGTPPPGQVPVCGACKTPLPWVVEADEKGFAQEVAGAPLTLVDFFAPWCGPCRLVSPILEELARDHAGRLKVVKVNVDEHPGLAARYGVRSVPTLVLFRRGAPVATWVGASPRRVLEERLRPYLEGR | soluble
13 | MVVVTGREPDSRRQDGAMSSSDAEDDFLEPATPTATQAGHALPLLPQEFPEVVPLNIGGAHFTTRLSTLRCYEDTMLAAMFSGRHYIPTDSEGRYFIDRDGTHFGDVLNFLRSGDLPPRERVRAVYKEAQYYAIGPLLEQLENMQPLKGEKVRQAFLGLMPYYKDHLERIVEIARLRAVQRKARFAKLKVCVFKEEMPITPYECPLLNSLRFERSESDGQLFEHHCEVDVSFGPWEAVADVYDLLHCLVTDLSAQGLTVDHQCIGVCDKHLVNHYYCKRPIYEFKITW | soluble
14 | MVWSSETFGMTPEEQIEWMALDDQEKKKLERKRARNRQAATKCRQKKMDRIKELEEQVLHEKHRGQRLDAELLELNRALEHFRRTVEHHSGNGCPNNSIRV | not soluble
15 | MVYVAVLANIAGNFPALTAALEKIEELKEEGYEIEKYYILGNIVGLFPYPREVIEAIKNLAKTSNVKVIRGKYDQLIAMSDPHAGDPKYIDKLEIPDHLKATLKYTWEKLGHEGREYLRDLPIYLVDKIGKNEIFGVYGSPVNPFDGEILPDQPTSYYEAIMRPVKEYEMLLVASPRYPLDAMTMYGRVVCPGSIGFPPAREHKATFALVDAETLKVKFIEVEYDKKIIEDRIKLEKLPEEVIKILYHGGKA | soluble
16 | MWEANELSSTNTFSHQAEMDWPSANWWQRYQDAQLNHLIEEALQHSPSLCMAMARLKGAQGFARQAGAIRSFDLGLAASATESKVSERYQSATPPDGWNDYGTLTLNFQYDFDFWGKNRAAVVAATSELAAAEAESVAARLMISTSIANAYAELARLYANQETVHAALQVRNKTVELLEKRYANGLETLGSVSQAKAVAASVEAELLGIQESIQLQKNALAALVGQGPDRAASIEEPHITLTSRYGLPSEAGVGLLGHRADITAARWRAEAAAQQVGIAQAQFYPDVTLSAFIGYQAFGLDHLFDSGNDAGAIGPAIYLPLFTGGRLEGQLTSAEARYQEAVAQYNGTLVQALHEIADVVTSSQALQARINKTEQAVQQAEQALHIATNRYQGGLATYLDVLVAEESLLNNQRALVNLQSRAFSLDLALIHALGGGFETTES | soluble
17 | MWSCPTLNAPRAAQKWLPVRATPHLCVLHMSRLMLSSTLIDELSYVRKDQLETSALFELIAHRYERHSIAITANEPFSGWSDAMTVAAIDRLVHHSTIIEMNGESYRKRAAVARGASTQNANDEPEDPPNRSSLEHHHHHH | not soluble
18 | MYAGINYDQLFGTEQVRERQLPLHSSQAQHFLNEVKPILDNRCVVCHACYDAPCQLKMTSAEGIDRGASKALVYQGTRLTAATPTRLYEDAQLTQEWRAAGFHPVLNERNQTAQANLDAGVMARLLMQKERHPLPQQDQLQGFDFSIDREQTCPTINEMDHFEQVNPNWGMPFGMPNLSPKEYTTLLSWLQEGAVMNQALPLSAQEQALVTEYEALLNHSSRKNQLAARYIYEHLFLSHLYFSEIAQERPRFFKLIRSSTPPGEPVKRIVTRRPYDDPGVERVYYRLVPEQETIVDKTHMPFALNKQRIANWKLWFIDADYEVAELPSYRPDIAANPMSAFIDLPVKARFKFLLDNAQNTVMAFIKGPVCRGQLALNVINDRFWVFFLDPEKADLPEVNEFYRSQVNNLKLPAEQENTALPLSNWVRYSLQQSRYLEAKSEFINQWFKNGTHLTTDIIWDGAGINPNAALTIFRHFDSASVVQGLVGEPPKTAWIMDYALLERIHYLLVAGFDVYGNFGHQLITRMFMDFLRMEGESNFVALLPRDMRHQELSSWYQNQSVQFSDFLQRNVKPFDQPTSVNYVTDNPKQELFAKLRKQVQSVLSDRYVITQTGFKAEHEFALRQIDHLRGEGLLPIPQLMMLMIESEQGKPQLFTLIHNNAHTNISSLFDEQNNRDPKNDNLTLVRGVVGSYPSAYLTLKENQIPELYQRLAAMKSEQDYVALLDRFAVRRSSPEFWAFSDLVHQWYRQDQPIEFGLLDYNRFENRLEHHHHHH | not soluble
19 | MYCTIDDLLGQIDKSKLIELTNDRADPAVDENGQEIIHEGNANSAIEAATAVVNTYIAMRYPVPLSPVPKIVSKLTADIAIYNLFTRHYNDEDNVFVRRYRDAIRLLEKIAADEVKLTANESGIRTYARRKVFGEDFRRMYD | not soluble
20 | MYDLLVIGAGPGGYVAAIRAAQLGMKVGVVEKEKALGGTCLRVGCIPSKALLETTERIYEAKKGLLGAKVKGVELDLPALMAHKDKVVQANTQGVEFLFKKNGIARHQGTARFLSERKVLVEETGEELEARYILIATGSAPLIPPWAQVDYERVVTSTEALSFPEVPKRLIVVGGGVIGLELGVVWHRLGAEVIVLEYMDRILPTMDLEVSRAAERVFKKQGLTIRTGVRVTAVVPEAKGARVELEGARSWKTDRVLVAVGRRPYTEGLSLENAGLSTDERGRIPVDEHLRTRVPHIYAIGDVVRGPMLAHKASEEGIAAVEHMVRGFGHVDYQAIPSVVYTHPEIAAVGYTEEELKAQGIPYKVGKFPYSASGRARAMGETEGFIKVLAHAKTDRILGVHGIGARVGDVLAEAALALFFKASAEDLGRAPHAHPSLSEILKEAALAAWERPIHL | soluble
21 | MYEAIGHRVEDGVAEITIKLPRHRNALSVKAMQEVTDALNRAEEDDSVGAVMITGAEDAFCAGFYLREIPLDKGVAGVRDHFRIAALWWHQMIHKIIRVKRPVLAAINGVAAGGGLGISLASDMAICADSAKFVCAWHTIGIGNDTATSYSLARIVGMRRAMELMLTNRTLYPEEAKDWGLVSRVYPKDEFREVAWKVARELAAAPTHLQVMAKERFHAGWMQPVEECTEFEIQNVIASVTHPHFMPCLTRFLDGHRADRPQVELPAGV | soluble
